Test results published in PMC3344845 (2012).

Target: chicken avidin (Gallus gallus (Chicken), UniProt P02701)
Assay: ITC

chicken avidin, sequence (P02701 25-152): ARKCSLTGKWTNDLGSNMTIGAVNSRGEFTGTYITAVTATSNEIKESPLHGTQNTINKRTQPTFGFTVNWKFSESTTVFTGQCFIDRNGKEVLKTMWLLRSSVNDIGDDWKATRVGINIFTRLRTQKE

SEKLSNTK (protein) [Brad-tag (synthetic peptide SEKLSNTK)]: no binding.
